Measured values from patent US10400009B2, “β-sheet breaker peptide used for preventing and/or treating alzheimer's disease” (TIANJIN MEDICAL UNIVERSITY, priority 2014, dated 2019).
Ends that are not written are not given here.

How the values were obtained:
Aβ1-42 [1] = target: T1, Aβ1-42 (Homo sapiens, UniProt P05067); experiment: FT-IR spectrometry of Aβ1-42 secondary structure (β-sheet); assay type: biochemical; details: co-incubation with Aβ1-42 at 37° C. for 72 h
T1 construct: purchased Sigma, Inc. (US)
Protocol: 1.3 the Inhibition Effect of HPYD on Aβ1-42 Aggregation was Observed by FT-IR Spectrometry.
22.15 μmol/L Aβ1-42 solution in PBS phosphate buffer was formulated in quadruplicate as described in the above 1.2 section. To two solutions, PBS phosphate buffer was added in equal volume respectively and incubated alone at 37° C. for 30 min (30 min, aging group) and 72 h (72 h, aging group). To the other two solutions, H102 (88.60 μmol/L) and HPYD (88.60 μmol/L) were added in equal volume respectively and co-incubated at 37° C. for 72 h. After incubation, each sample was vacuum lyophilized. Then, 3.5 μg of H102 and 3.7 μg of HPYD were respectively mixed with anhydrous potassium bromide (120-180 mg) thoroughly, and pressurized for 5 min by tablet machine to form potassium bromide tablet. The measurement and analysis were carried out by using Nicolet Magna 760 FT-IR instrument, with a resolution of 4 cm^−1 and a spectrum range of 3500-400 cm^−1. The amide I band spectrum at 1700-1600 cm^−1 was analyzed using Origin 8.0 software. The fitting range was expanded to 1750-1550 cm^−1 due to the complexity of the components in the samples and the effect of vibration peaks close to amide I band on the secondary structure.
In the above-mentioned studies, Aβ1-42 was used as negative control, and H102 was used as positive control.

Aβ1-42 [2] = target: T1, Aβ1-42; experiment: ThT fluorescence spectrophotometry of Aβ1-42 aggregation; assay type: biochemical; details: Aβ1-42 11.07 μmol/L, peptide 44.3 μmol/L, 37° C., 24 h, PBS pH 7.4; x ± S
Protocol: 1.2 the Inhibition Effect of HPYD on Aβ Aggregation was Analyzed by ThT Fluorescence Spectrophotometry.
The degree of Aβ aggregation may be reflected by ThT fluorescence intensity. Aβ1-42 lyophilized powder was formulated in 50 mmol/L PBS phosphate buffer (pH 7.4) to obtain a solution in a concentration of 22.15 μmol/L. The polypeptides H102 and HPYD were also formulated in 50 mmol/L PBS phosphate buffer (pH 7.4) to obtain a solution in a concentration of 88.60 μmol/L. In the experiment, Aβ1-42 was mixed with H102 or HPYD in 1:1 volume ratio to a final concentration of 11.07 μmol/L and 44.3 μmol/L, respectively. […] ThT fluorescence intensity was measured by using VARIAN PTC-Au00-01058 fluorescence spectrophotometer at the excitation wavelength of 453 nm and emission wavelength of 478-486 nm. […]
The fluorescence intensity from the aging group (in which Aβ1-42 lyophilized powder was formulated in 50 mmol/L PBS phosphate buffer (pH 7.4) to obtain a solution in a concentration of 11.07 μmol/L, and the obtained solution was incubated at 37° C. for 24 hours) from which baseline fluorescence intensity was subtracted would be taken as 100%, and the inhibitory rate of the drug on Aβ1-42 in each group was calculated. […]
Inhibitory rate=(the relative fluorescence intensity of 1-β sheet blocking peptide/the relative fluorescence intensity of Aβ1-42)×100%

Aβ1-42 [3] = target: T1, Aβ1-42; experiment: Electron microscopy of Aβ1-42 fiber formation; assay type: biochemical; details: for Aβ fibers observed by electron microscope: co-incubation with Aβ1-42 for 5 days at 37° C.
Protocol: 1.4 the Inhibition Effect of HPYD on Aβ Aggregation was Observed by Using Electron Microscope. Aβ1-42 solution in PBS phosphate buffer (11.07 μmol/L, 20 μl) was formulated as described in the above 1.2 section, and incubated alone at 37° C. for 5 days. Meanwhile, Aβ1-42 (22.15 μmol/L, 10 μl) was respectively co-incubated with […] or HPYD (88.61 μmol/L, 10 μl) under the same conditions for 5 days. 5 μl sample was taken from each group and dropped on the carbon support film on 300-mesh deionized copper grids, and then kept still at ambient temperature for 15 min. The samples were negatively stained in dark with 2% uranyl acetate for 2 min. After drying, the samples were observed using transmission electron microscope. In the above-mentioned studies, Aβ1-42 was used as negative control, and […] was used as positive control.

Aβ [4] = target: T2, Aβ (Homo sapiens, UniProt P05067); details: from Chinese patent CN 101531703A; cited from earlier work
[5] = tested on: APP/PS1 double transgenic mice; experiment: Morris Water Maze place navigation test; assay type: in vivo; details: nasal 33 mg/ml at 5 μl/d, 30 days, n = 7
Protocol: (§1) 1.1 Animals: Fourteen APP/PS1 double transgenic mice were randomized into model group and drug administration group. Seven C57BL/6J mice with the same age and genetic background were used in normal control group. By way of nasal administration, 33 mg/ml HPYD in physiological saline solutions were administered to the mice in drug administration group in a rate of 5 μl/d using drug delivery devices, and the same volume of physiological saline solutions were administered nasally to the mice in normal control group and model group. The detection was performed 30 days after the administration.
(§2) 1.2 Morris Water Maze test: (1) Place Navigation: A platform is placed in a circle within the third quadrant of water maze. Each mouse swims twice (90 s/time) during the same time periods of every day for 5 days. The time required for a mouse's finding and climbing onto the platform, i.e. escape latency, is recorded. If the mouse could not find the platform within 90 s, it is guided to the platform and kept for 20 s. In this case, the escape latency is recorded as 90 s. (2) Spatial Probe: The platform is removed at day 6, and during the same time period, a water entry point is optionally selected for putting a mouse into water. Each mouse swims once (90 s/time). The swim track of the mouse within 90 s, the numbers of leaping over the hidden platform, the original swimming angle after water entry, and so on are recorded for testing the memory ability of the mouse.
1.3 Data processing: The data obtained is expressed in mean±standard deviation (χ±5). Statistical analysis was performed using statistical software SPSS16.0. One-way ANOVA and pairwise comparison were employed. P<0.05 represents that the difference is statistically significant.

APP = experiment: Immunohistochemical staining of APP in brains of APP/PS1 double transgenic mice; assay type: in vivo; details: nasal 33 mg/ml at 5 μl/d, 30 days, n = 7, x ± S
Protocol: as §1, with “control group. These mice were all purchased from the Experimental Animal Research Center of Peking Union Medical College, Chinese Academy of Medical Sciences. By way” for “control group. By way”, “administration group at a rate” for “administration group in a rate”, “detection was carried out 30 days” for “detection was performed 30 days”
(§3) 1.2 Drugs and reagents: Anti-Aβ1-42 antibody was purchased from Chemicon Inc. Anti-APP antibody, ready-to-use SABC Immunohistochemistry Staining Kit, DBA Color Development Kit and 0.1% polylysine were purchased from Wuhan Boster Biological Technology, Ltd. Other reagents have analytical purity.
(§4) 1.3 Immunohistochemical Staining: After Morris Water Maze was carried out in order to determine the learning ability of the experimental mice, the mice were anaesthetized by celiac injection with 0.1 kg/L chloral hydrate at a dose of 4 ml/kg. Rapid intubation was carried out via left ventricle. […]

[6] = tested on: APP/PS1 double transgenic mice; experiment: Morris Water Maze spatial probe test; assay type: in vivo; details: 30 days, n = 7
Protocol: as §1
as §2, with “(2) Spatial Probe: The platform is removed at day 6, and during the same time period, a water entry point is optionally selected for putting a mouse into water. Each mouse swims once (90 s/time).” left out, “mouse. […]” for “mouse.”

Aβ [7] = target: T2, Aβ; experiment: Immunohistochemical staining of Aβ in brains of APP/PS1 double transgenic mice; assay type: in vivo; design: from tissue; host or cells: brain (cortex, hippocampus CA1) of APP/PS1 double transgenic mice; details: nasal 33 mg/ml at 5 μl/d, 30 days, n = 7, x ± S
Protocol: as §1, with “control group. These mice were all purchased from the Experimental Animal Research Center of Peking Union Medical College, Chinese Academy of Medical Sciences. By way” for “control group. By way”, “administration group at a rate” for “administration group in a rate”, “detection was carried out 30 days” for “detection was performed 30 days”
as §3, §4

| Sequence | transmittance in each wavenumber representing secondary structures, versus Aβ incubated alone for 72 h (Aβ1-42 [1]) | Inhibitory rate (%) on Aβ1-42 aggregation (Aβ1-42 [2]) [%] | Aβ fibers observed by electron microscope (Aβ1-42 [3]) | inhibitory rate on Aβ aggregation (Aβ [4]) [%] | content of β-sheet (FT-IR, 1640-1620 cm^−1) (Aβ1-42 [1]) | inhibition effect on Aβ aggregation by electron microscopy, compared with H102 (Aβ1-42 [3]; co-incubation with Aβ1-42 for 5 days) | daily mean escape latency ([5]; 1 d) [s] | daily mean escape latency ([5]; 2 d) [s] | daily mean escape latency ([5]; 3 d) [s] | daily mean escape latency ([5]; 4 d) [s] | daily mean escape latency ([5]; 5 d) [s] | APP ratio of positive cells (%), Cortex (APP) [%] | APP ratio of positive cells (%), Hippocampus CA1 area (APP) [%] | numbers of leaping over the hidden platform (numbers) ([6]; day 6, 90 s, nasal 33 mg/ml at 5 μl/d) | Orientation angles (degree) ([6]; day 6, nasal 33 mg/ml at 5 μl/d) | Aβ ratio of positive cells (%), Cortex (Aβ [7]) [%] | Aβ ratio of positive cells (%), Hippocampus CA1 area (Aβ [7]) [%] |
| --- | --- | --- | --- | --- | --- | --- | --- | --- | --- | --- | --- | --- | --- | --- | --- | --- | --- |
| HKQLPFFEED [H102, reference compound] | significantly higher transmittance | 14.168 ± 0.038 | Aβ fibers were significantly decreased | 27.84 | – | – | – | – | – | – | – | – | – | – | – | – | – |
| HKQLPFYEED [HPYD] | significantly higher transmittance | 27.013 ± 0.018 | significantly decreased and thinner | – | lowest | stronger inhibition effect on Aβ aggregation than H102 | 88.127 ± 4.137 | 80.404 ± 15.646 | 67.740 ± 24.389 | 45.950 ± 19.211 | 24.974 ± 9.685 | 14.25 ± 3.25 | 12.75 ± 1.83 | 2.25 ± 1.258 | 40.478 ± 26.533 | 15.85 ± 2.77 | 11.09 ± 2.47 |
